Like-named read-outs stand apart in the source and are kept apart here.

The target of test [1] is full-length human IL-36R on cells (human) (UniProt Q9HB29).
Test [2] has as its target Macaca fascicularis IL-36R on cells (Macaca fascicularis). Nature of the test: cell-based or functional assay.
For test [3], the target named is full-length human IL-36R on cells (human) (UniProt Q9HB29). The test can be described thus: cell-based or functional assay.
Test [4] shares this target. The source holds these as a separate data set.

Macaca fascicularis IL-36R on cells (Macaca fascicularis), sequence (chain, as listed by the source): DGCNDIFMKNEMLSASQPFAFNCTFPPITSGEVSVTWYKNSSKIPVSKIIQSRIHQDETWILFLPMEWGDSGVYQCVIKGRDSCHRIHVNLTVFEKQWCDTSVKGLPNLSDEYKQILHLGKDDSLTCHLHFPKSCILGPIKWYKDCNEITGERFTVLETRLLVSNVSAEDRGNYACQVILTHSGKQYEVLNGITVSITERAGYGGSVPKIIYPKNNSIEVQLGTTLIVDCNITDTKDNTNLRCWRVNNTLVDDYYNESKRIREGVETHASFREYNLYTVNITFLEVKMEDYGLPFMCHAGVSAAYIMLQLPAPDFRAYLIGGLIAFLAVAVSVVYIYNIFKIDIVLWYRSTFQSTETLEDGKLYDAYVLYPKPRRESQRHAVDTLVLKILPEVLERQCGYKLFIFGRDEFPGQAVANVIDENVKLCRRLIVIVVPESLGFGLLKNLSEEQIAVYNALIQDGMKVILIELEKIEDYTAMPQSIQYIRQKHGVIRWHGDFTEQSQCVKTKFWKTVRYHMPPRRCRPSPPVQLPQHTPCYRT

B1: human IL-36β (ligand, UniProt Q9NZH7 5-157, looked up)
chain: REAAPKSYAIRDSRQMVWVLSGNSLIAAPLSRSIKPVTLHLIACRDTEFSDKEKGNMVYLGIKGKDLCLFCAEIQGKPTLQLKLQGSQDNIGKDTCWKLVGIHTCINLDVRESCFMGTLDQWGIGVGRKKWKSSFQHHHLRKKDKDFSSMRTN
Consider B1, for which, in test [1], the EC50 (read off the curve) of hIL36β, NFκB-luciferase RLU, in the presence of 0.3 nM REGN6490 stood at 8 pM; the EC50 (read off the curve) of hIL36β, NFκB-luciferase RLU, in the presence of 1 nM REGN6490 amounted to 20 pM; the EC50 (read off the curve) of hIL36β, NFκB-luciferase RLU, in the presence of 3 nM REGN6490 turned out to be 80 pM; the EC50 (read off the curve) of hIL36β, NFκB-luciferase RLU, in the presence of 9 nM REGN6490 was found to be 300 pM. For the same molecule, the EC50 (read off the curve) of hIL36β, NFκB-luciferase RLU, no antibody in test [1] was determined as 3 pM. The same molecule had an EC50, NFκB-luciferase, HEK293/NFκB-luc/MfIL-36R cells in test [2] of 270 pM. This molecule also came in with an EC50, NFκB-luciferase, HEK293/NFκB-luc/hIL-36R cells in test [3] of 14 pM. In test [4], the EC50 (read off the curve) of hIL36β, NFκB-luciferase RLU, in the presence of 0.1 nM REGN6489 was found to be 5 pM; the EC50 (read off the curve) of hIL36β, NFκB-luciferase RLU, in the presence of 0.3 nM REGN6489 amounted to 10 pM; the EC50 (read off the curve) of hIL36β, NFκB-luciferase RLU, in the presence of 1 nM REGN6489 is 30 pM; the EC50 (read off the curve) of hIL36β, NFκB-luciferase RLU, in the presence of 3 nM REGN6489 turned out to be 100 pM. Besides, in test [4], the EC50 (read off the curve) of hIL36β, NFκB-luciferase RLU, in the presence of 9 nM REGN6489 was determined as 300 pM and the EC50 (read off the curve) of hIL36β, NFκB-luciferase RLU, no antibody was found to be 2 pM.
